# Substitutions are numbered along the chain they refer to. Numbers in names are those of the source.
# B1: MEILB2α (mouse MEILB2 amino-acids 22–81) (domain or fragment, UniProt Q9D4G2 22-81, looked up)
# chain: EEFVKVRKKDLERLTTEVMQIRDFLPRILNGELLESFQKLKMVEKNLERKEQELEQLIMD
# notes: MEILB2 (meiotic localiser of BRCA2; HSF2BP), mouse, residues 22-81: the α1 helix and the beginning of the α2 helix; Two copies stand in the 2:2 core complex with BRME1; also called HSF2BP; source: E. coli BL21 (DE3), purified with BRME1 (Ni-NTA, amylose, ion exchange, TEV cleavage, SEC); not shown: His6-MBP (pMAT11) or MBP (pRSF-Duet1), N-terminal, cleaved
# B2: BRCA2MBD (mouse BRCA2 amino-acids 2232–2283, MEILB2-binding domain) (domain or fragment, UniProt P97929 2232-2283, looked up)
# chain: PIKRSLLNEFDRIIESKGKSLTPSKSTPDGTVKDRSLFTHHMSLEPVTCGPF
# notes: source: E. coli BL21 (DE3), purified in complex with MEILB2 (Ni-NTA, amylose, ion exchange, TEV cleavage, SEC); not shown: His6-MBP (pMAT11) or MBP (pRSF-Duet1), N-terminal, cleaved
# B3: MBP-BRCA2MBD (mouse BRCA2 2232–2283 with N-terminal MBP-tag) (domain or fragment, UniProt P97929 2232-2283, looked up)
# chain: B2 chain
# notes: also called BRCA2MBD with N-terminal MBP-tag; source: E. coli BL21 (DE3), purified in complex; not shown: MBP, N-terminal, kept
# B4: MBP-MEILB2 (mouse MEILB2 22–338 with N-terminal MBP-tag) (domain or fragment, UniProt Q9D4G2 22-338, looked up)
# chain: EEFVKVRKKDLERLTTEVMQIRDFLPRILNGELLESFQKLKMVEKNLERKEQELEQLIMDREHFKARLETAQADSGREKKEKLALRQQLNEAKQQLLQQAEYCTQMGAVTCTLLWGVSSSEEVVKTILGGDKALKFFNITGQTMESFVKSLDGDVKEVDSDENQFVFALAGIVTNVAAIACGREFLVNSSRVLLDTMLQLLGDLKPGQCTKLKVLMLMSLYNVSINSKGLKYITESPGFIPLLWWLLSDPDAEVCLHTLRLIQSVVLEPDVFSKVASELQSSLPLQRILAMSKSRNSHLQSAAQELLEDLRALDCNV
# notes: MEILB2 (HSF2BP), mouse, residues 22-338; also called MEILB2 with N-terminal MBP-tag; source: E. coli BL21 (DE3), purified in complex; not shown: MBP, N-terminal, kept
# B5: MEILB2 (mouse MEILB2 amino-acids 22–338, the full structured region) (domain or fragment, UniProt Q9D4G2 22-338, looked up)
# chain: B4 chain
# notes: MEILB2 (HSF2BP), mouse, residues 22-338: α-helical region (α1, α2) and C-terminal ARM domain; the N-terminal 21 residues removed; also called HSF2BP; source: E. coli BL21 (DE3), purified in complex (Ni-NTA, amylose, ion exchange, TEV cleavage, SEC); not shown: His6-MBP (pMAT11) or MBP (pRSF-Duet1), N-terminal, cleaved
# B6: MEILB2 K26E (mouse MEILB2 22–338) (domain or fragment, UniProt Q9D4G2 22-338, looked up)
# chain: B4 chain with K5E
# notes: MEILB2 (HSF2BP), mouse, residues 22-338 with K26E; source: E. coli BL21 (DE3), purified in complex (Ni-NTA, amylose, ion exchange, TEV cleavage, SEC); not shown: His6-MBP (pMAT11) or MBP (pRSF-Duet1), N-terminal, cleaved
# B7: BRME1MBD (mouse BRME1 amino-acids 540–578) (domain or fragment, UniProt Q6DIA7 540-578, looked up)
# chain: RMQDATDTVRGLVVELSGLNRLIMSTHRDLEAFKRRKTK
# notes: source: E. coli BL21 (DE3), purified in complex with MEILB2 (Ni-NTA, amylose, ion exchange, TEV cleavage, SEC); not shown: His6, N-terminal, cleaved
# B8: BRME1MBD ΔRKTK (mouse BRME1 amino-acids 540–574) (domain or fragment, UniProt Q6DIA7 540-574, looked up)
# chain: RMQDATDTVRGLVVELSGLNRLIMSTHRDLEAFKR
# notes: BRME1 (BRCA2 and MEILB2-associating protein 1); The crystallography methods give 540–574 for the crystallised BRME1 chain, the results give 540–578; also called BRME1 540–574; BRME1MBD (in the crystallography methods); source: E. coli BL21 (DE3), purified with MEILB2 (Ni-NTA, amylose, ion exchange, TEV cleavage, SEC); not shown: His6, N-terminal, cleaved
# Tests used:
# [1] = target: the molecule itself; assay: crystal structure; MEILB2α–BRME1MBD (22–81; 540–574) 2:2 core complex; crystals grown on ice in 20 mM HEPES pH 7.5, 150 mM KCl; 1.50 Å; one 2:2 complex in the asymmetric unit
# [2] = target: B5; assay: not stated; BRCA2MBD–MEILB2 in the absence of BRME1MBD, in solution; data in Supplementary Fig. 14; conditions: both partners purified
# [3] = target: B6; assay: not stated; BRCA2MBD–MEILB2–BRME1MBD complex with MEILB2 K26E; data in Supplementary Figs. 2 and 12c; conditions: both partners purified
# [4] = target: B5; assay: SEC-MALS; BRCA2MBD–MEILB2–BRME1MBD ternary complex at >5 mg/ml, Superdex 200 Increase 10/300 GL, 20 mM HEPES pH 7.5, 500 mM KCl, 2 mM DTT; conditions: both partners purified
# [5] = target: B4; assay: as above; conditions: both partners purified
# [6] = target: the molecule itself; assay: as above
# [7] = target: the molecule itself; assay: not stated; BRCA2MBD–MEILB2 in the absence of BRME1MBD, in solution; data in Supplementary Fig. 14
# [8] = target: the molecule itself; assay: SEC-MALS; MEILB2–BRME1MBD complex at >5 mg/ml, Superdex 200 Increase 10/300 GL, 20 mM HEPES pH 7.5, 150 mM KCl, 2 mM DTT
# [9] = target: the molecule itself; assay: not stated; BRCA2MBD–MEILB2–BRME1MBD complex with MEILB2 K26E; data in Supplementary Figs. 2 and 12c
# [10] = target: B5; assay: SEC-MALS; MEILB2–BRME1MBD complex at >5 mg/ml, Superdex 200 Increase 10/300 GL, 20 mM HEPES pH 7.5, 150 mM KCl, 2 mM DTT; conditions: both partners purified
# [11] = target: B1; assay: crystal structure; MEILB2α–BRME1MBD (22–81; 540–574) 2:2 core complex; crystals grown on ice in 20 mM HEPES pH 7.5, 150 mM KCl; 1.50 Å; one 2:2 complex in the asymmetric unit; conditions: both partners purified
binder,measurement,setting,value
B1,binding result,[1],binds
B2,stoichiometry N,[2],0.5 BRCA2MBD per MEILB2 (4:8)
same,stoichiometry N,[3],0.5 BRCA2MBD per MEILB2 (2:4 in the 2:4:4 complex)
same,stoichiometry N,[4],0.5 BRCA2MBD per MEILB2 (2:4 in the 2:4:4 complex)
B3,stoichiometry N,[5],0.5 BRCA2MBD per MEILB2 (2:4 in the 2:4:4 complex)
B4,stoichiometry N,[6],4 MEILB2 chains in the 2:4:4 complex (with BRCA2MBD)
B5,stoichiometry N,[7],8 MEILB2 chains in the 4:8 oligomer (with BRCA2MBD)
same,stoichiometry N,[8],2 MEILB2 chains in the 2:2 complex
same,stoichiometry N,[6],4 MEILB2 chains in the 2:4:4 complex (with BRCA2MBD)
B6,stoichiometry N,[9],4 MEILB2 chains in the 2:4:4 complex (with BRCA2MBD)
B7,stoichiometry N,[3],1 BRME1MBD per MEILB2 (4:4 in the 2:4:4 complex)
same,stoichiometry N,[10],1 BRME1MBD per MEILB2 (2:2)
same,stoichiometry N,[5],1 BRME1MBD per MEILB2 (4:4 in the 2:4:4 complex)
same,stoichiometry N,[4],1 BRME1MBD per MEILB2 (4:4 in the 2:4:4 complex)
B8,binding result,[11],binds
